Assay results published in paper PMC4111287.

Biological target: soluble human PEX3 (reading frame from G25, C235S) (human) (UniProt P56589)
Assay: native MS; PEX3 and PEX19 mixed in equimolar concentrations (5-10 µM), overnight at 4°C in 20 mM sodium phosphate, 300 mM NaCl, 1 mM DTT, pH 8.0; nano-electrospray on a QToF I under conditions that preserve non-covalent interactions; complex analysed at 10 µM

Sequence of UniProt P56589 (P56589 25-373 C235S): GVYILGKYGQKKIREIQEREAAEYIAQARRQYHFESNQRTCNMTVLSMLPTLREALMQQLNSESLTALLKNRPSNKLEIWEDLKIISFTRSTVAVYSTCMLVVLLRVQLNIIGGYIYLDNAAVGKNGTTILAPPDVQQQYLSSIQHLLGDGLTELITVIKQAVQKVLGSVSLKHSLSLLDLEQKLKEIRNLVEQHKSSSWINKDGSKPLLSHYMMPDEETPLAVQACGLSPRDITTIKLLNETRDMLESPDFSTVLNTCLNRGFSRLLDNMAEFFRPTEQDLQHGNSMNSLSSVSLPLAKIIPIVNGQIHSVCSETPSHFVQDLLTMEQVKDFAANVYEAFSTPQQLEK

“full length human PEX19 with an N-terminal His-tag (from UniProt P56589 1-373) (natural protein)” showed a stoichiometry N of 1.
